This passage reports Kd results from article PMC11905881, “Incorporation of polymerizable linkers into aptamers for high-affinity nanoscale molecularly imprinted polymer hybrids: analysis of positional selectivity†”.

One series concerns the target trypsin (UniProt P00760). Nature of the series: SPR. Particulars: embedded in imprinted polymer nanoparticle, SPR: PBST (10 mM phosphate buffered saline, pH 7.4, 0.01% Tween 20), 25 °C, nanoparticles immobilized on carboxymethyl dextran Au chips, protein 4-64 nM, n = 3.
The target of a further series is lysozyme (UniProt P00698 19-147). Nature of the series: SPR; lysozyme-imprinted polymer hybrid; SPR: PBST (10 mM phosphate buffered saline, pH 7.4, 0.01% Tween 20), 25 °C; nanoparticles immobilized on carboxymethyl dextran Au chips, protein 4-64 nM; n = 3. The note with it: protein: commercial. (SPR reads the build-up and loss of mass on a sensor chip optically.)
Chain of lysozyme (P00698 19-147): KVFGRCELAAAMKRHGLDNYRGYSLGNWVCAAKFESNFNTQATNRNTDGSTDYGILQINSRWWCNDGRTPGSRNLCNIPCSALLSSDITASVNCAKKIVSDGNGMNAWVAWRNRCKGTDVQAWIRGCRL

Chain of trypsin (P00760 24-246): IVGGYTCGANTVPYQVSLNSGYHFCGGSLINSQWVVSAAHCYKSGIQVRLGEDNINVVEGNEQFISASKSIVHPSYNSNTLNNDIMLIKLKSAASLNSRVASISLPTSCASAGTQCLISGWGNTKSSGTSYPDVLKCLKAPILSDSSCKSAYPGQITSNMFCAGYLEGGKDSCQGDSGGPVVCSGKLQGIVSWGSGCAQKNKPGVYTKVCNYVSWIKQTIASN

A word on the Kd: it is a measure of binding affinity in units of concentration. A low value points to a tighter complex. Consider “ATCTACGAATTCATCAGGGCTAAAGAGTGCAGAGTTACTTAG [AptaMIP-5 oligo]”, for which the Kd with trypsin (two carboxy-dT, one at each end (positions 1 and 6 of Fig. 1)) was determined as 8.95 µM.
Consider “ATCTACGAATTCATCAGGGCTAAAGAGTGCAGAGTTACTTAG [AptaMIP-3 oligo]”, for which the Kd with trypsin (three carboxy-dT, both ends and centre) turned out to be 9.75 µM.
In turn, “ATCTACGAATTCATCAGGGCTAAAGAGTGCAGAGTTACTTAG [AptaMIP-4 oligo]” had a Kd with trypsin (three carboxy-dT near centre (9 bases free at 3', 14 at 5')) of 9.87 µM.
As to “ATCTACGAATTCATCAGGGCTAAAGAGTGCAGAGTTACTTAG [AptaMIP-1 oligo]”, in the series with trypsin (six carboxy-dT (ester or amide, polymerizable), throughout), the Kd was determined as 4.68 µM.
In the case of “ATCTACGAATTCATCAGGGCTAAAGAGTGCAGAGTTACTTAG [AptaMIP-7 oligo]”, the Kd with trypsin (one carboxy-dT at 5' end) came out at 4.89 µM.
On to “ATCTACGAATTCATCAGGGCTAAAGAGTGCAGAGTTACTTAG [AptaMIP-2 oligo]”, for which the Kd with trypsin (four carboxy-dT, evenly spaced, no central linker) is 2.33 µM.
Regarding “ATCTACGAATTCATCAGGGCTAAAGAGTGCAGAGTTACTTAG [AptaMIP-8 oligo]”, the Kd in the series with trypsin (one central carboxy-dT) was found to be 4.17 µM.
In turn, “ATCTACGAATTCATCAGGGCTAAAGAGTGCAGAGTTACTTAG [AptaMIP-6 oligo]” registered a Kd with trypsin (one carboxy-dT at 3' end) of 4.68 µM.

B1: AptaMIP-1 oligo (ssDNA)
DNA: ATCTACGAATTCATCAGGGCTAAAGAGTGCAGAGTTACTTAG
modifications: six carboxy-dT (ester or amide, polymerizable), throughout; embedded in imprinted polymer nanoparticle
B1 showed a Kd with lysozyme of 0.00128 µM.

B2: AptaMIP-3 oligo (ssDNA)
DNA: ATCTACGAATTCATCAGGGCTAAAGAGTGCAGAGTTACTTAG
modifications: three carboxy-dT, both ends and centre; embedded in imprinted polymer nanoparticle
In the series with lysozyme, B2 showed a Kd of 0.0012 µM.

B3: AptaMIP-4 oligo (ssDNA)
DNA: ATCTACGAATTCATCAGGGCTAAAGAGTGCAGAGTTACTTAG
modifications: three carboxy-dT near centre (9 bases free at 3', 14 at 5'); embedded in imprinted polymer nanoparticle
Molecule B3 yielded a Kd in the series with lysozyme of 0.0427 µM.
